How the values were obtained:
Test in all cases: peptide or protein array
[1] = target: PTPESANL (PL8) (SIVsm (isolated from sooty mangabeys) strains)
[2] = target: TTPESANL (TL8) (SIVmac251 strains)
[3] = target: Tat SL8 epitope (Tat 28-35) (SIVmac239)

Substance: rhesus MHC class I Mamu-A1*001 complex (heavy chain with human β2 microglobulin) (from UniProt P61769 21-119)
- binding score [1]: 6.28
- binding score [2]: 8.72
- binding score [3]: 8.33
- fluorescence intensity above the median (sd above the median) [3]: 7.15

From publication PMC7065948
